Measured values reported in paper PMC10883267 (2023).

Tests used:
Test in all cases: pulldown with E. coli lysates, quantified
[1] = biological target: eIF4E-binding motif of human eIF4G (608-647) (UniProt Q04637); settings: n = 3 independent experiments; parent: est. 0.30; read off a plot
[2] = biological target: eIF4E-binding motif of human eIF4ENIF1 (27-63) (UniProt Q9NRA8); settings: n = 3 independent experiments; parent: est. 2.5; read off a plot
[3] = biological target: eIF4E-binding motif of human eIF4EBP1 (50-83) (UniProt Q13541); settings: n = 3 independent experiments; parent: est. 0.90; read off a plot
eIF4E-binding motif of human eIF4EBP1 (50-83), sequence (Q13541 50-83): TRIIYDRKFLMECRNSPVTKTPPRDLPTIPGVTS

mouse eIF4E1B (63-244) (from UniProt Q3UTA9) Dorsal (W101 mutated; new residue not printed), sequence (Q3UTA9 63-244, change not shown): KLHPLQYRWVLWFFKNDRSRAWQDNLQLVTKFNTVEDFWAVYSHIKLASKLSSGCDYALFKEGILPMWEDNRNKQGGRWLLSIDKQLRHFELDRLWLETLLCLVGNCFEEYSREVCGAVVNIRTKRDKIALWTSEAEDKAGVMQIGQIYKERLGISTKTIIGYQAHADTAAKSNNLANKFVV
mouse eIF4E1B (63-244) (from UniProt Q3UTA9) Lateral (V91, T92, I107 mutated; new residues not printed), sequence (Q3UTA9 63-244, change not shown): as above
eIF4E-binding motif of human eIF4G (608-647), sequence (Q04637 608-647): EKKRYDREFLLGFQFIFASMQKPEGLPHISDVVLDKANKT
eIF4E-binding motif of human eIF4ENIF1 (27-63), sequence (Q9NRA8 27-63): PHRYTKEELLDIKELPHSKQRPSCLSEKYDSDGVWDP

| other: Binding (rel. to Mm eIF4E) (rel. to Mm eIF4E) [1] | other: Binding (rel. to Mm eIF4E) (rel. to Mm eIF4E) [2] | other: Binding (rel. to Mm eIF4E) (rel. to Mm eIF4E) [3] | Substance |
| --- | --- | --- | --- |
| 0.12 | 0.9 | 0.2 | mouse eIF4E1B (63-244) (from UniProt Q3UTA9) Lateral (V91, T92, I107 mutated; new residues not printed) |
| 0.2 | 0.15 | 0.1 | mouse eIF4E1B (63-244) (from UniProt Q3UTA9) Dorsal (W101 mutated; new residue not printed) |
